Test results: patent US20220144895A1, “DE NOVO DESIGN OF TUNABLE PH-DRIVEN CONFORMATIONAL SWITCHES” (University of Washington, priority 2019, published 2022)
Entries after “also recorded” stand apart in the source; their conditions may differ.

Key:
U2-OS cells [1] = conditions: Bafilomycin A 1 μM, Chloroquine 50 μM as controls; cited from earlier work
[2] = pH 7.4
Excerpt: For low-pH experiments involving circular dichroism (CD), small-angle X-ray scattering (SAXS), and size exclusion chromatography (SEC), Na2PO4-Citrate buffer was used to ensure that a single buffer system could be used that was stable over the entire pH range to be tested. Buffers were made using established ratios of stock solutions of 0.2 M Na2PO4 and 0.1 M Citrate; final pH was adjusted using hydrochloric acid (HCl) or sodium hydroxide (NaOH) if needed.
CD wavelength scans (260 to 195 nm) and temperature melts (25 to 95° C.) were measured using a JASCO™ J-1500 or an AVIV™ model 420 CD spectrometer. Temperature melts monitored absorption signal at 222 nm and were carried out at a heating rate of 4° C./min; protein samples were at 0.25 mg/mL in either phosphate buffered saline (PBS) pH 7.4 or Na2PO4-Citrate at indicated pH values (see Buffers systems for varying pH). Guanidinium chloride (GdmCl) titrations were all performed on an AVIV 420 spectrometer with an automated titration apparatus using either PBS pH 7.4 or Na2PO4-Citrate buffers at indicated pH at room temperature, monitoring helical signal at 222 nm, using a protein concentration of 0.025 mg/mL in a 1 cm cuvette with stir bar. Each titration consisted of at least 30 evenly distributed concentration points with one minute mixing time for each step. Titrant solution consisted of the same concentration of protein in the same buffer system plus GdmCl; GdmCl concentration of starting solutions was determined by reactive index.

[3] = Fluorescence dequenching liposome leakage (liposome disruption) assay; assay type: biochemical; conditions: pH 5, 2.5 μM protein
Procedure: Liposomes composed of DOPC (1,2-dioleoyl-sn-glycero-3-phosphocholine), DOPC with 25% cholesterol (molar ratio to DOPC), 3:1 DOPC:POPS (1-palmitoyl-2-oleoyl-sn-glycero-3-phospho-L-serine), and 3:1 DOPC:POPS with 25% cholesterol were prepared identically to a final concentration of 5 mM total lipid as previously described (32); lipids from Avanti Polar Lipids. Lipids solubilized in chloroform were dried under nitrogen gas and stored under vacuum for a minimum of 2 hours to remove residual solvent. The dried lipid film was the resuspended in Tris buffer (10 mM Tris, 150 mM NaCl, and 0.02% NaN3 pH 8.0) containing 25 mM Sulforhodamine B (SRB) fluorophore (Sigma) and subjected to 10 sequential freeze thaw cycles in liquid nitrogen. Liposomes were extruded 29 times through 100 nm pore size polycarbonate filters (Avanti Polar Lipids) and purified from free fluorophore using a PD-10 gel filtration column (GE Healthcare) into storage buffer (10 mM Tris, 150 mM NaCl, and 0.02% NaN3 pH 8.0). Liposome size and homogeneity was analyzed by dynamic light scattering (DLS) using a Dynapro Nanostar™ DLS (Wyatt Technologies). On average liposome diameter ranged from 120-130 nm with low polydispersity. Liposomes were stored at 4° C. and used within 5 days of preparation.
Liposome disruption and content leakage was analyzed by fluorescence spectroscopy as previously described (32). […] The solution was rapidly acidified to the target pH by addition of a fixed volume of acidification buffer and incubated for 20 minutes. […] SRB fluorescence is independent of pH within the ranges used here. Finally. Triton X-100 (Sigma) was added to a final concentration of 1% to fully disrupt liposomes. Liposome disruption as indicated by content leakage and SRB dequenching was normalized using the formula [Fω−F(0)]/[F(Max)−F(0)] where F(0) is the average fluorescence intensity before acidification and F(Max) is the average fluorescence intensity ater addition of Triton X-100. All measurements were collected on a Varian Cary Eclipse spectrophotometer using an excitation/emission pairing of […] and 2.5 nm slit widths at 24° C. Any data plotted together was collected using the sum batch of liposomes.

[4] = Cryo-electron microscopy and tomography of proteins with DOPC liposomes; conditions: gold-nanoparticle conjugates, pH 5 and pH 8
Procedure: The conjugation reactions were performed immediately prior to use for electron microscopy imaging. […] The grids were prepared using a Vitrobot Mark IV (FEI) at 4 C and 100% humidity before being plunge-frozen in ethane cooled with liquid nitrogen.
Electron micrographs were collected using a Tecnai G2 Spirit™ Transmission Electron Microscope (FEI) operated at 120 kV and equipped with a 4k×4k Gatan Ultrascan CCD camera at a nominal magnification of 26,000× or a Tecnai TF-20 Transmission Electron Microscope (FEI) operated at 200 kV equipped with a K2 Summit Direct Electron Detector (Gatan).
Projection micrographs collected on the TF-20 were captured with the detector operating in counting mode. Specimens were imaged at 14,500 magnification, giving a pixel size of 0.254 nm, with a dose of ˜18e−/Å^2 across 75 200 ms movie frames. Data were collected in a semi-automated fashion using Leginon™ (49) and micrograph movie frames were aligned using MotionCor2™ (50). Leginon™ was used to collect tomography tilt series from −48 to +48 degrees bidirectionally in 3 degree increments with a total accumulated dose of ˜100 e−/Å^2. Reconstructions were processed using etomo in the IMOD™ software suite (31) with CTF parameters estimated from CTFFIND4™ (52). Reconstructed tomograms were visualized and measurements were made using ImageJ™ (53).

[5] = Native mass spectrometry of pH-induced changes in oligomeric state; assay type: physicochemical; conditions: native MS
Procedure: Samples were buffer exchanged twice into 200 mM ammonium acetate (NH4Ac; MilliporeSigma) using Micro Bio-Spin P-6 columns (Bio-Rad). Protein concentrations were determined by UV absorbance using a Nanodrop 2000c spectrophotometer (Thermo Fisher Scientific) and diluted to make up a 10-fold stock solution (50 μM and 16.7 μM monomer and trimer concentration, respectively). 1 μL of this solution was mixed with 9 μL 200 mM NH4Ac/50 mM triethylammonium acetate (TEAA; MilliporeSigma), adjusted with acetic acid (Fisher Scientific) to obtain the desired final pH and incubated on ice for 30 min. […] 5 μL samples were filled into an in-house pulled glass capillary and ionized by nESI at a monomer or a trimer concentration of 5 μM or 1.67 μM respectively. All pH titration data were acquired on an in-house modified SYNAPT® G2 HDMS (Waters Corporation) with a surface-induced dissociation (SID) device incorporated between a truncated trap traveling wave ion guide and the ion mobility cell (39). The following instrument parameters were used spray voltage 0.9-1.3 kV; sampling cone, 20 V; extraction cone, 2 V; source temperature, room temperature; trap gas flow, 4 mL/min; trap bins, 45V. The data were processed with MassLynx™ v4.1 and DriftScope™ v2.1. For relative quantification, charge state series were extracted from DriftScope™, and smoothed spectra (mean; window 20; number of smooths 20) were integrated.
Python scripts were written to generate theoretical models according Equation 1, and curve-fitting to native mass spectrometry data (FIGS. 1, 3, 5) according to Equation 2 by nonlinear least squares using curve fit from scipy.optimize. The free energy estimates for individual n, m, and l layers used in Equation 1 modeling were estimated by solving linear equations as follows: values for the free energy of folding for designs pRO-2 and variants were estimated from GdmCl denaturation experiments (FIG. 11); each of these designs have different numbers of n, m, and l layers, thus series of linear equations relating the number of each layer type to the total free energies of folding were solved to estimate dG values of the individual layers of each type.

[6] = target: the molecule itself; test: native mass spectrometry at 5 uM trimer
Procedure: Samples were buffer exchanged twice into 200 mM ammonium acetate (NH₄Ac; MilliporeSigma) using Micro Bio-Spin P-6 columns (Bio-Rad). […]

U2-OS cells [7] = test: Colocalization of +36GFP fusions with lysosomal membrane (confocal microscopy); assay type: cell-based; conditions: 5 μM, 1 hr
Procedure: U-2 OS (ATCC) cells were cultured in DMEM supplemented with 10% (v/v) inactivated FBS (Corning), 2 mM glutamine, penicillin (100 IU/mL), and streptomycin (100 μg/mL) at 37° C. and 5% CO2. The glass-bottom coverslip chambers were pre-coated with 500 μg/mL of Matrigel (Corning). Transfection of LAMP1-HaloTagTM was performed using Lonza Nucleofector system according to the manufacturer's specifications. After overnight of recovery and expression, the cells expressing LAMP1-HaloTagTM were labeled with 100 nM JF646-HTL for 30 minutes and washed three times with pre-warmed DMEM medium. The final concentration of 5 μM+36GFP fusion proteins was incubated with the LAMP1-HaloTagTM expressing U-2 OS cells on a pre-coated coverslip for 1 hr. Cells were fixed with 4% paraformaldehyde for 20 min at room temperature (RT) and quenched/rinsed with PBS supplemented with 30 mM glycine. Then, the coverslips were mounted on FluoroSaveTM (Millipore). For pH measurement of the lysosome, LysoSensorTM Yellow/Blue DND-160 was incubated at 1 mg/mL overnight and washed twice prior to imaging (54). The final concentration of 5 μM protein was incubated with the LAMP1-HaloTag expressing U2-OS cells that were loaded with 1 mg/mL LysoSensorTM Yellow/Blue DND-160 for 1 hr. In separate chambers, LysoSensorTM Yellow/Blue DND-160 loaded cells were incubated with bafilomycin A1 (1 μM) and chloroquine (50 μM) for 1 hr as a control. For fixed cell confocal microscopy, a customized Nikon TiE inverted scope outfitted with a Yokogawa spinning-disk scan head (#CSU-X1) along with an Andor iXonTM EM-CCD camera (DU-897) with […] exposure time was used to collect 3D images using an SR Apo TIRF 100×1.49 oil-immersion objective. […] coefficients were calculated in 3D with JF646 signal (LAMP-HaloTag) and +36GFP signal (corresponding proteins) using Imaris software with thresholding. Zeiss 880 equipped with AiryScanTM was also used to obtain high resolution images using a Plan-Apochromatic 63×/1.4 oil DIC objective.

[8] = target: T1, pRO-4 Chain B (heterodimer pRO-4), hexahistidine tag cleaved; test: SEC and native mass spectrometry; heterodimer
T1 construct: The tag was removed for all pH experiments
T1 chain: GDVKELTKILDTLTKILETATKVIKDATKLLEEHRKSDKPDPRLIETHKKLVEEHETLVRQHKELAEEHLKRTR

[9] = target: the molecule itself; test: native mass spectrometry at the indicated pH
Procedure: Samples were buffer exchanged twice into 200 mM ammonium acetate (NH₄Ac; MilliporeSigma) using Micro Bio-Spin P-6 columns (Bio-Rad). Protein concentrations were determined by UV absorbance using a Nanodrop 2000c spectrophotometer (Thermo Fisher Scientific) and diluted to make up a 10-fold stock solution (50 μM and 16.7 μM monomer and trimer concentration, respectively). 1 μL of this solution was mixed with 9 μL 200 mM NH₄Ac/50 mM triethylammonium acetate (TEAA; MilliporeSigma), adjusted with acetic acid (Fisher Scientific) to obtain the desired final pH and incubated on ice for 30 min.

[10] = Size-exclusion chromatography (SEC); assay type: physicochemical; conditions: high concentration
Procedure: Cells were lysed by microfluidization in the presence of 1 mM PMSF. Lysates were clarified by centrifugation at 24,000 ref at 4° C. for at least 30 minutes. Proteins were purified by Immobilized metal affinity chromatography (IMAC): supernatant was applied to Ni-NTA (Qiagen) columns pre-equilibrated in lysis buffer. The column was washed twice with 15 column volumes (CV) of wash buffer (25 mM Tris pH 8.0 at room temperature, 300 mM NaCl, 40 mM Imidazole), followed by 3-5 CV of high-salt wash buffer (25 mM Tris pH 8.0 at room temperature, 1 M NaCl, 40 mM Imidazole) then an additional 15 CV of wash buffer. Protein was eluted with 250 mM Imidazole, and buffer-exchanged into 25 mM Tris pH 8.0 and 150 mM NaCl without imidazole for cleavage of the N-terminal hexahistidine tag by purified hexahistidine-tagged TEV protease (with the exception of design pRO-1, which was cleaved using restriction grade thrombin (EMD Millipore 69671-3) at room temperature for 4 hours or overnight, using a 1:3000 dilution of enzyme into sample solution). A second Ni-NTA step was used to remove hexahistidine tag, uncleaved sample and the hexahistidine-tagged TEV protease, and the cleaved proteins were then […], 150 mM NaCl, and 2% glycerol.

CO/C1=C\C(C)=C\[C@@H](C)[C@@H](O)[C@@H](C)C/C(C)=C/C=C/[C@H](OC)[C@@H]([C@@H](C)[C@@H](O)[C@H](C)[C@@]2(O)C[C@@H](O)[C@H](C)[C@@H](C(C)C)O2)OC1=O [Bafilomycin A]
effect on lysosomal pH (known drugs) (U2-OS cells [1]): known to neutralize lysosomal pH

CCN(CC)CCCC(C)Nc1ccnc2cc(Cl)ccc12 (stereo not shown) [Chloroquine]
effect on lysosomal pH (known drugs) (U2-OS cells [1]): known to neutralize lysosomal pH

B1: pRO-2-noHis subunit (homotrimer lacking histidine networks) (designed binder)
chain: GSEYEIRKALEELKASTAELKRSTASLRASTEELKKNPSEDALVENNRLIVENNAIIVENNRIIAAVLELIVRAIK
notes: forms a homotrimer; Tag-free form
folding stability by GdmCl denaturation [2]: unaffected by change in pH
liposome disruption activity at pH 5 [3]: no detectable liposome activity
interaction with liposomes by cryo-EM [4]: no interactions with liposomes at either pH; also recorded: does not interact with liposomes at either pH
oligomeric state at pH 7 / neutral pH [5]: assembled to the intended trimeric state
pH response of oligomeric state (pH-induced disassembly) ([5]; pH ~7 to ~3): remained trimeric at low pH; also recorded: no significant pH response
binding result [6]: binds
colocalization with lysosomal membranes (U2-OS cells [7]): not observed in lysosomes

B2: pRO-4 Chain A (heterodimer pRO-4) (designed binder)
chain: MDEEDHLKKLKTHLEKLERHLKLLEDHAKKLEDILKERPEDSAVKESIDELRRSIELVRESIEIFRQSVEEEE
binding result [8]: binds

B3: pRO-2 I56V subunit (designed binder)
chain: GSEYEIRKALEELKAATAELKRATASLRAITEELKKNPSEDALVEHNRAIVEHNAIVVEHNRIIAAVLELIVRAIK
notes: forms a homotrimer; Tag-free form, and the entry already carries I56V
binding result [9]: binds

B4: pRO-1: designed homotrimer, SEQ ID NO: 13-14 (protein)
chain 1: MGSSHHHHHHSSGLVPRGSHMGTLKEVLERLEEVLRRHREVAREHQRWAREHEQWVRDDPNSAKWIAESTRWILETTDAISRTADVLAEAIRVLAESD
chain 2: GSHMGTLKEVLERLEEVLRRHREVAREHQRWAREHEQWVRDDPNSAKWIAESTRWILETTDAISRTADVLAEAIRVLAESD
oligomeric state by SEC [10]: trimeric at high concentration
oligomeric state at pH 7 / neutral pH [5]: primarily dimeric
